Laboratory results: paper PMC5698441, “Molecular basis of AKAP79 regulation by calmodulin” (Nature Communications, 2017)

Key:
calcineurin, WT = calcineurin, WT (UniProt Q08209)
calcineurin I396A/I400A = calcineurin I396A/I400A (UniProt Q08209)

Substance: human CaM, untagged (pET28-a) (from UniProt P0DP23 1-149) (natural protein)
- half-maximal CaM concentration (KCaM) for activation of phosphatase activity against a phosphorylated RII peptide (calcineurin, WT): 30 nM
- half-maximal CaM concentration (KCaM) for activation of phosphatase activity against a phosphorylated RII peptide (calcineurin I396A/I400A): 670 nM
